Results as given in PMC1260013 (BMC Biochemistry, 2005).
Values joined by “and” are separate entries in the source; they are usually repeats but may differ in a detail not shown here. Equal values may be shown once.

B1: Mycobacterium tuberculosis isocitrate dehydrogenase ICD-2 (Rv0066c) (enzyme)
chain: MSAEQPTIIYTLTDEAPLLATYAFLPIVRAFAEPAGIKIEASDISVAARILAEFPDYLTEEQRVPDNLAELGRLTQLPDTNIIKLPNISASVPQLVAAIKELQDKGYAVPDYPADPKTDQEKAIKERYARCLGSAVNPVLRQGNSDRRAPKAVKEYARKHPHSMGEWSMASRTHVAHMRHGDFYAGEKSMTLDRARNVRMELLAKSGKTIVLKPEVPLDDGDVIDSMFMSKKALCDFYEEQMQDAFETGVMFSLHVKATMMKVSHPIVFGHAVRIFYKDAFAKHQELFDDLGVNVNNGLSDLYSKIESLPASQRDEIIEDLHRCHEHRPELAMVDSARGISNFHSPSDVIVDASMPAMIRAGGKMYGADGKLKDTKAVNPESTFSRIYQEIINFCKTNGQFDPTTMGTVPNVGLMAQQAEEYGSHDKTFEIPEDGVANIVDVATGEVLLTENVEAGDIWRMCIVKDAPIRDWVKLAVTRARISGMPVLFWLDPYRPHENELIKKVKTYLKDHDTEGLDIQIMSQVRSMRYTCERLVRGLDTIAATGNILRDYLTDLFPILELGTSAKMLSVVPLMAGGGMYETGAGGSAPKHVKQLVEENHLRWDSLGEFLALGAGFEDIGIKTGNERAKLLGKTLDAAIGKLLDNDKSPSRKTGELDNRGSQFYLAMYWAQELAAQTDDQQLAEHFASLADVLTKNEDVIVRELTEVQGEPVDIGGYYAPDSDMTTAVMRPSKTFNAALEAVQG
notes: also called M.tb ICD-2; M. tb ICD-2
B2: Mycobacterium tuberculosis isocitrate dehydrogenase ICD-1 (Rv3339c) (enzyme)
chain: MSNAPKIKVSGPVVELDGDEMTRVIWKLIKDMLILPYLDIRLDYYDLGIEHRDATDDQVTIDAAYAIKKHGVGVKCATITPDEARVEEFNLKKMWLSPNGTIRNILGGTIFREPIVISNVPRLVPGWTKPIVIGRHAFGDQYRATNFKVDQPGTVTLTFTPADGSAPIVHEMVSIPEDGGVVLGMYNFKESIRDFARASFSYGLNAKWPVYLSTKNTILKAYDGMFKDEFERVYEEEFKAQFEAAGLTYEHRLIDDMVAACLKWEGGYVWACKNYDGDVQSDTVAQGYGSLGLMTSVLMTADGKTVEAEAAHGTVTRHYRQYQAGKPTSTNPIASIFAWTRGLQHRGKLDGTPEVIDFAHKLESVVIATVESGKMTKDLAILIGPEQDWLNSEEFLDAIADNLEKELAN
notes: also called M.tb ICD-1; M. tb ICD-1

What was measured:
[1] = target: the molecule itself; experiment: SEC; Superose 6 10/300 GL, room temperature, concentrated ICD-2 (~400 ug; 1.06 mg/ml), high salt (1 M NaCl)
[2] = target: the molecule itself; experiment: SEC; Superose 6 10/300 GL, room temperature, concentrated ICD-2 (~400 ug; 1.06 mg/ml), low salt (100 mM NaCl)
[3] = target: the molecule itself; experiment: SEC
[4] = target: the molecule itself; experiment: SEC; Superdex-200 HR 10/30, room temperature, 2.4 mg/ml recombinant ICD-1, calibrated with molecular-mass standards

Row | Protein | stoichiometry N [1] | stoichiometry N [2] | stoichiometry N [3] | stoichiometry N [4]
1 | B1 | 2 | 4 | 3 | 
2 | B2 |  |  |  | 4 and 2
